Assay results taken from the RNAGym collection of RNA variant scans (doi:10.7554/elife.90254).

B1: LINE1-full (parent)
chain: UACGUAGGUGGUUUUCCCCUGAUAGUGCUAAGGGGGCCUGGAAGUUUGGACUGGGCAGAGCUCAACACAGCGUGGCAAAGUGGCUGUGGCUAGACUGCCUCUCUGGAUUCCUCGUCACUCAGCAGGGCAUCUCUGAGAGAAAUGCC

Variants of: B1
Test: self-cleavage, relative activity (ratio to wild type); higher = more cleavage; in vitro, sequencing; the parent is a self-cleaving ribozyme

Variant	self-cleavage
A2G U104A	0.95
U20A A140U	1.7
U26C U73A	1.48
U26C U73C	1.45
A92G A117G	0
A6G U119C	0.73
G74A U143G	2.27
U29C U100C	1.49
U46A G55A	0.24
C113U U115A	1.05
U62C A94U	0.08
A124C U130C	1.84
G55A A140G	0.17
G35C	1.31
A24U U119A	1.09
U1A U14A	0.89
A67G A136U	0.4
G54A G83A	0.52
U47C U130A	1.31
A22G A57U	0.2
G125A U132C	1.55
A24U A140G	1.75
C19U U26C	1.32
A121U A138C	1.56

Variant	self-cleavage
A121U A138G	1.56
U134A A142C	1.23
U9C C145A	1.3
A59G A124G	0.13
C128U U143C	1.26
A30G U119A	1.01
U26C A64G	0.39
U134A A141G	1.12
A43G G75A	1.06
A30G C63A	0.3
A129G G144U	1.67
G25C A140G	2.41
U39A C116A	1.38
A6U U46A	1.07
A6G C66U	0.15
U119C U134A	1.92
A57G U62C	0.08
A24G A31G	0.72
A42G U62A	0.06
C71G A124G	0.25
U119C G125U	2.39
U100A	0.9
U100G	1.24
A2G A77G	1.36

Variant	self-cleavage
C3A A69G	0.31
U26G A117U	1.3
A129U C131U	1.78
A57U U104A	0.06
U112A U134C	1.56
U13G U39C	0.7
C37G A117G	1.66
G35U A129G	1.57
U100A C103U	0.44
U9A G36U	0.71
A64G A141G	0.21
U20A U26A	1.23
A140G A141U	0.82
U96A A140U	0
C56U U85A	0.04
G36U U52C	1.19
C103U G114C	1.5
A59G A136U	0.09
A50G A129U	0.26
U20G G27A	0.92
C113U A117C	1.68
G89U A142U	0.04
G114A U119C	1.2
C16U A59U	0.8

Variant	self-cleavage
A57U A136C	0.1
C3U U104C	1.53
G32A A69U	0.02
A22U U119A	1.46
A117C	1.75
U14A G72U	1.32
G125A A140G	1.32
G8C U46C	1.13
G44C U45C	1.02
A107U A141G	1.52
A78U A94U	0.3
U104C C116U	1.91
U20A C120U	1.32
U15C U29C	1.28
A69C A138G	0.16
U1A U39C	1.2
A30U U143A	0.77
U102C U115C	2.02
U15A U73A	1.02
A43U U130A	1.67
C51U A69G	0.66
A59U U115C	1.34
A94G U115C	0.45
U23A U108G	1.59

Variant	self-cleavage
A107U U134G	1.9
A78G U85G	0.18
A57G U104C	1.11
G32U U73A	0.89
A59U U108G	0.84
A124U	1.4
U5G U39C	0.63
U13G U115G	1.43
C113U C128U	1.17
U52A U87G	0.29
U9C A117U	1.62
U52C C99A	0.27
A117U A136G	1.51
A43U A129U	1.22
G49U U119C	1.2
U1C U9A	0.75
U12C A136G	1.41
U26C A129G	1.41
U45C U46A	0.74
A79G C99U	0.38
A57U C110A	0.19
U85A U143A	0.08
U85C G86U	0.07
C17U A124G	0.47

Variant	self-cleavage
G32A U112C	1.36
A69G U109A	0.43
U13C A138U	1.31
A6G A121U	0.99
U23A C118U	1.22
G33U U39C	1.16
U9G A94G	0.22
A78U U112C	1.91
A78G C95U	0.1
A77C U130C	1.89
C16A U96G	0.08
A24G A117G	1.78
G82U A92U	0.43
A67U A136U	0.12
A2G U81C	1.14
U5C G74A	1.19
A59U A121U	0.79
A57C A69U	0.08
G4A G93A	0.03
U23C A69G	1.2
A6G U47C	0.53
C103U U130C	0.84
U45A U115G	1.17
A77G U112A	2.32

Variant	self-cleavage
A31U A107G	1.28
C95U G135A	0.17
U15A G48C	0.71
G34C U115C	1.82
U39A G54A	0.66
U62A U102C	0.01
A30G A107G	1.2
A57G A117G	1.41
G72U U87C	0.32
U47C A57U	0.29
U104A U109C	1.11
U104A U109A	0.42
U14C A50U	1.03
U14G A107G	1.28
U39C U119C	1.38
U20A U85G	0.1
A59G C90U	0.03
G36A G89U	0.01
U1C U29G	1.45
U26G U87C	0.3
U45G A121G	0.46
G86A A121U	0.26
A77G A138U	2.56
